Results: US20240189458A1, “METHODS FOR IN VIVO DELIVERY OF MICROBES TO HUMAN MICROENVIRONMENTS” (priority 2021, published 2024)
Ends that are not written are not given here.

Columns and labels:
Format in all cases: cell-based
KB1 PhoQ H277A = molecular target: T1, KB1 PhoQ H277A (Salmonella typhimurium, UniProt P0DM80, H277A); test: Negative control strains (S. Typhimurium lacking phoQ; KB1 PhoQ H277A)
T1 construct: expressed in transfected cells; host or cells: E. coli KB1 derivative (BW30007 background)
T1 sequence (P0DM80 1-487 H277A): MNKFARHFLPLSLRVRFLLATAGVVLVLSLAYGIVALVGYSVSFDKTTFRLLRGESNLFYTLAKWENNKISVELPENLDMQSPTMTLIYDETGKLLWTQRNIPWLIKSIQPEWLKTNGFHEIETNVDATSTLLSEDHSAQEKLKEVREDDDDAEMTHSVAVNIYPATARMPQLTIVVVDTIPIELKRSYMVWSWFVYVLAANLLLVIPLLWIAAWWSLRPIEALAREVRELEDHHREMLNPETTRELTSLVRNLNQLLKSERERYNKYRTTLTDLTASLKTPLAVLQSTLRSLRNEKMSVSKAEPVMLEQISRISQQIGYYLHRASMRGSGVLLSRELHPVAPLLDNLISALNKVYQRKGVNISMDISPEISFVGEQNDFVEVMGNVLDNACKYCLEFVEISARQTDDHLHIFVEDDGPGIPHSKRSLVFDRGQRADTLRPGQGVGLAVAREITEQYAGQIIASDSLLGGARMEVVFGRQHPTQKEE
Description: This plasmid was transformed into both S. Typhimurium and KB1 to measure PhoPQ activation by the positive control AMP LL-37. […] LL-37 response was also measured in two negative control strains: an S. Typhimurium strain lacking phoQ and a KB1 derivative in which the catalytic histidine of PhoQ was mutated to an alanine (KB1 PhoQ H277A).

S. Typhimurium PhoPQ [1] = molecular target: T2, S. Typhimurium PhoPQ (Salmonella typhimurium, UniProt P0DM80); test: SLAY-TCS: surface-displayed peptides in KB1, single strains, flow cytometry; settings: KB1, IPTG-induced display
T2 construct: expressed in transfected cells; host or cells: E. coli BW30007 (lacks E. coli phoPQ) with the cassette integrated in the genome = strain KB1
Description: In SLAY, peptides of interest are expressed at the C-terminus of a fusion protein consisting of the Lpp signal peptide, an OmpA transmembrane domain, and a flexible tether. […] In addition to PvirK-mNG, each of these plasmids encodes a SLAY fusion protein under the control of an isopropyl-β-D-thiogalactoside (IPTG)-inducible promoter (Ptac) (FIG. 25). Ptac is tightly repressed, to avoid potential toxicity arising from leaky AMP expression in the absence of inducer. […] Finally, a no-peptide control plasmid encoding a stop codon was constructed instead of a peptide following the OmpA transmembrane domain.

S. Typhimurium PhoPQ [2] = molecular target: T2, S. Typhimurium PhoPQ; test: SLAY-TCS sort-seq screen of KB1 human AMP library; settings: for sort-seq fold activation of PhoPQ relative to no-peptide control: KB1 library, 500 μM IPTG
Description: PhoQ senses diverse human AMPs: To characterize the response of PhoQ to most human AMPs, 133 human AMPs in the Antimicrobial Peptide Database (APD3) were first identified). From this set, 16 (12%) were excluded exceeding 104 amino acids in length due to size restrictions of commercial oligonucleotide synthesis. The remaining set of 117 AMPs vary in charge, length, hydrophobicity, and secondary structure, and comprise 11 clusters of high sequence similarity. These clusters include families of mature AMPs processed from a single precursor peptide (e.g. products of cathelicidin, human defensin 5, and β-amyloid) and peptides with high sequence similarity that are produced from distinct genes (e.g. CXCL1, CXCL2, and CXCL3).
This plasmid library was transformed into KB1. Using Illumina NGS, it was validated that sequences encoding all 117 human AMPs, along with no-peptide controls, are present in the KB1 human AMP library. Variants of human AMPs were also identified that likely resulted from errors in oligo synthesis or plasmid assembly. As expected, these variants generally had lower representation in the library than the human AMPs.
Next, sort-seq was utilized to characterize the effect of each peptide on PhoPQ activity. First, the KB1 human AMP library was grown in the presence of 500 μM IPTG, which induces sufficient expression of positive control AMPs to strongly activate PhoPQ (FIG. 25D). Then, FACS was used to sort these bacteria into eight logarithmically-spaced mNG fluorescence bins (FIG. 26B). The bins were designed to span the fluorescence distributions of negative (no peptide) and positive (C18G) PhoQ activity control strains measured on the same day. […] Next, Illumina NGS was used to sequence the peptide-encoding DNA regions from bacteria in each bin and estimated the mean mNG fluorescence level of each strain using the relative abundances of peptide-encoding sequences across fluorescence bins. These estimated fluorescence values were divided by the estimated mean fluorescence of the no-peptide control to calculate the fold activation of PhoPQ in response to each peptide in the library.

T2 sequence (P0DM80 whole entry): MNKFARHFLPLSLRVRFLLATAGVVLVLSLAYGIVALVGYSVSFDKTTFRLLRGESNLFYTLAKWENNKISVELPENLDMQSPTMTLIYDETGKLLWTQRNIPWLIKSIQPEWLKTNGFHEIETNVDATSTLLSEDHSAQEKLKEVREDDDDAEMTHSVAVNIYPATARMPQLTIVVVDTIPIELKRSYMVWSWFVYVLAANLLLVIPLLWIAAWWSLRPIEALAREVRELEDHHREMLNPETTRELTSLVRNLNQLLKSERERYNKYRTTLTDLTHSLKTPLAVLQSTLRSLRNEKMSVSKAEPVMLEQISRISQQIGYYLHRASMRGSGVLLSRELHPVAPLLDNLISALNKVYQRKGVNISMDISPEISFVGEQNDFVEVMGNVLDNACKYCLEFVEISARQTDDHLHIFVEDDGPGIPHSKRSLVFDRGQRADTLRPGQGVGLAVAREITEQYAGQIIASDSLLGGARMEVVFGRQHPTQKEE

Row | Substance | PhoPQ activation by surface-displayed peptide (S. Typhimurium PhoPQ [1]) | human AMPs sensed by PhoPQ (S. Typhimurium PhoPQ [2]) | sort-seq fold activation of PhoPQ relative to no-peptide control (S. Typhimurium PhoPQ [2]) | other results
1 | protegrin-1: positive control AMP containing disulfide bonds (RGGRLCYCRRRFCVCVGR; disulfide (positions not given here); ends not checked; also: disulfide bonds, pairing not given here; UniProt P32194 131-148, looked up) | activates PhoPQ |  |  | PhoPQ activation by surface-displayed AMPs in PhoQ H277A strain (KB1 PhoQ H277A; KB1 PhoQ H277A): slight increase in mNG fluorescence
2 | hBD3: human β-defensin 3 (GIINTLQKYYCRVRGGRCAVLSCLPKEEQIGKCSTRGRKCCRRKK; ends and bridges not checked; cysteine pairing not given here; UniProt P81534 23-67, looked up) |  | senses |  | 
3 | NPY: neuropeptide Y |  | senses |  | 
4 | CCL20 |  | senses |  | 
5 | LL-37 |  |  | 5.2 fold | LL-37 response in negative control strains (KB1 PhoQ H277A; S. Typhimurium lacking phoQ and KB1 PhoQ H277A): Neither negative control strain responds
6 | HNP-1: human defensin, negative control peptide | do not activate PhoPQ |  | does not activate mNG expression | 
